experiment: yeast display, Sf9 membrane polyspecificity reagent, FACS + sequencing; frameworks hold sequencing errors
Outline: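 In a synthetic yeast display library (Saccharomyces cerevisiae BJ5465), nanobody expression was induced with galactose for 36–48 hours. FACS gates were set low and high (top ~1%) using anti-HA fluorescence for expression and streptavidin fluorescence for binding of the Sf9 membrane reagent. Each polyreactivity label is drawn from the gate of origin.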

Row | Sequence | polyreactivity (PSR sort gate)
1 | QVQLLESGAGLVQAGGSLRLSSAASGSIFNLNAMAWYRQAPGKERELVAGIRWSGGRTYYADSVKGRFTISRDNAKNTVYLQMNSLKPVDNEVYYCTAVGYLSWWYDYEYWGQGTQVTVST | high polyreactivity
2 | QVQLVESGGGLVQAGGSLRLSSAASGRNFSRYAMGWYRQAPGKERELVAAINKSGGSTYYADSVKGRFTISRDNAKNTVYLQMNSLKPEDSAFYYCNAVYYWYKGDYWGQGSQVTVSS | high polyreactivity
3 | QVQLVESGGGLVQAGGSLRLSCAASGSILDPYAMGWYRQAPGKERELVADISSGASTNYADSVKGRFTISRDNAKNTVYLQMNSLKPEDTAVYYCAAVYVEYSEYRYIVELYYWGQGTQVTVSS | low polyreactivity
4 | QVQHVESGGGLVQAGGSLRLSCAASGRTITNYVMGWYRQSPGKEREFVATITARGGSTNYADSVKGRFTISRDNAKNTVYLQMNSLKPEDTAVYYCAAGRRFTVAYGYFYWGQGTQVTVSS | high polyreactivity
5 | QVQLVESVGGLVQAGGSLRLSCAASGFIFYRYAMGWYRKAPGKEWEFVAAINYSATSTYYADSVKGRFTISRDNAKNTVYLQMNSLKPEDTAVYYCAAKRVRRLSYETKYDYWGQGTQVTVSS | high polyreactivity
6 | QVHLVESGGGLVQAGGSLRLSCAASGSTFSWYDMGWYRQAPGKERELVAAISTTGSTYYADSVKGRFTISRDNAKNTVYLQMNSLKPEDTAVYYCAADYISIAWYRLFYDYDYWGQGTQVTVSS | high polyreactivity
7 | HVQLVESGGGLVQAGGSLRLSCAASGSTFTRNAMGWSRQAPGKEWELVAVISSRGGRTYYADSVKGRFTISRDNAKNTVDLQMNSLKPEATAVYYCAARYVIPLGNTYDYWGPGTQVTVSS | high polyreactivity
8 | QVQLVESGGGLVQAGGSLRLSSAASGFIFSYNAMRWYRQARGKERELVAAITYSDGGTYADSVKARFTISRDNAKNTVDLQMHSLKPEDTAVYYCARRQVLYSRDFEYDYWGQGTLVTVSS | low polyreactivity
9 | QVQLVESGGGLVQAGGSLRLSCAASGGIIGHYDMGWYRQAPGKERELVAAIIGGGSTNYADSVKGRFTISRDNAKNTVYLQMNSLKPEDTAVYYCNVAHGTQGWWGRNDYWGQGTQVTVSS | low polyreactivity
10 | QVQLVESGGGLVQAGGSLRLSCAASGSIFTRNTMGWYRQAPGKERELVAAISTSGGDTYYADSVKGRFTISRDNAKNTVYLQMNSLKPEDTAVYFCAVVLVGVYFGYDYWGQGTQVTVSS | high polyreactivity
11 | QVQLVESGGGLVQAGGSLRLSCAASGSTFGGNAKGWYRQAPGKERELGAAISSSGGSTYYADSVKGRFTLSRDNAKNTVYLQMNSLKPEDTAVYYCAALYHWTYDYWGQGTQVTVSS | low polyreactivity
12 | QVQLVDSAVGLVQAGGSLRLSCPASGSIISFYTMGWYRQAPGKERDLVASSTTYADSVKGRFTISRDNAKNTVYLQMNSLKPEVTAVYYCATRHPARRDYWGQGTQVTVSS | low polyreactivity
13 | QVQLVESGGGLVQAGGSLRLSCAASGSTFHYNAMGWYRQAPGKERELVAAIDNGGRTNYADSVKGRFTISRDNAKNTVYLQMNSLKPEDPAVYYCATRGYFWSFTTSYYHYYYWGQGTQVTVSS | high polyreactivity
14 | QVQLVESGGGLVQAGGSLRLSCAASGFTFENYAMGWYRQAPGKERELVAAITRTGGITYYADSVKGRFTISRDNAKNTVYLQLNSLKPEDTAVYYCDADDTWTRPKNYDRYDYWGQGTQVTVSS | low polyreactivity
15 | QVQLVESGGGLVQAGGSLRLSCGASGSTFYGYAMGWYRQAPGTEREVVAAISSGGSTYYADSVKGRFTISRDNAKNTVYLQMNSLKPEDTAVYYCDAVGYFWITNHKDYYWGQGTQVTVSS | high polyreactivity
16 | QVQLVESGGGLVQAGGSLRLSCAASGSIFQSYAMGWYRQAPGKERELVAAIDRSGTSTYYADSVKGRFTISRDNAKNTVYLQMNSLKPEDTAVYYCNTLRRSWQMDYWGQGTQVTVSS | low polyreactivity

Row | Sequence | polyreactivity (PSR sort gate)
17 | QVQLVESGGGLVQAGGSLRLSCAASGSTFRQYSMGWYRQAPGKERELVAAISWSGGSTYYADSVKGRFTISRDNAKNTVYLQMNSLKPEDTAVYYCAAGRGGHRYKVGYWGQGTQVTVSS | high polyreactivity
18 | QVQLVESGGGLVQAGGSLRFSCAASGSISSQYGMGWYRQEPGKVRELVATIRDGGPTNYADSVKGRFTISRDNAKYTVYLQMNSLKPEDTAVYSCAALYWYYYTWPLYDYWGQGTQVTVSS | low polyreactivity
19 | QVQLVESGGGLVQAGGSLRLSCAASGFTFPSYAMGWYRQAPGKERELVAVISRRGGSTYYADSVKGRFTISRDNAKNTVYLQMNSLKPEDTAVYYCNAPYYVFITFDYWGQGTQVTVSS | high polyreactivity
20 | QVQLVESGGGLVQAGGSLRLICAASGSTFPGYAMGWYRQAPGKERELVATITRRGGSTYYADSVKGRFTISRDNAKNTVYLQMNSLKPEDTAVYYCNAVDYTVWLFPYDTGVDYWGQGTQVTVSS | low polyreactivity
21 | QVQLVESGGGLVQAGGSLRLSCAASGRTFYDNAMGWYRQAPGKERELVAVISTSGARTYYADSVKGRFTISRDNAKNTVYLQMNSLKPEDTAVYYCAARRYKYSWDSGYDLYYWGQGTQVTVSS | high polyreactivity
22 | QVQLVESGGGLVQAGGSLRLSCAASGRIFYQNAMGWSRPAPGKERELVAGITRGGSTYYADSVKGRFTISRDNAKNTVYLQMNSLKPEDTAVYYCAVAFWRTKWYDYWGQGTQVTVSS | low polyreactivity
23 | QVQLVESGGGLVQAGGSLRLSCAASGSTFFCYAMGWYRQAPGKERELVAAISRSGDRTYYADSVKGRFTISRDNAKNTVYLQMKSLKPEDTAVYYCAAKGFKPSDWGQGTQVTVSS | high polyreactivity
24 | QVQLVESGGGLVQAGGSLRLSCAASGSTYSYYAMGWYRQAPGKERELVAAITTSGGRTYYADSVKGRFTISRDNAKNTVYLQMNSLKPEDTAVYYCNARRHWYSAWGYDYWGQGTQVTVSS | high polyreactivity
25 | QVQLVESGGGLVQAGGSLRLSCAASGRIFDLNAMGWYSQAPGKERELVAAITTNDGDTYYADSVKGRFTISRDTAKNTVYLQMNSLKPEDTAVYYCAAVSGSTSEYEYWGQGTEVTVSS | low polyreactivity
26 | QVQLVDSGGGLVQAGGSLRLICAASGSISSYYAMVWYRQAPGKERELVAAITSGGRTYYADSVKGRFTISRDNAKNTVYLQMNSLKPEDTAVYYCNARTARNPIKGRASYYWGQGTQVTVSS | high polyreactivity
27 | QVQLVESGGGLVQAGGRLRLSCAASGSIFRSNAMGWYRLAPGKEREFVAASTRSGGSTYYADTVKGRFTISRDNAKNTVYLQMNSLKPAATAVYYCAADWKSYAYYYWGQGTQVTVSS | high polyreactivity
28 | QVQLVESGGGLVQAGGSLRLSCAASGRTFGKYAMGWDRQAPGKEMELVAAISTDVGDTYYADSVKGRFTISRDNAKNTVYLQMNSLKPEDTAVYYCAASFVYYGVDFVSWFWEGDYWGQGTQVTVSS | low polyreactivity
29 | QVQLVESGGGLVQAGGSLRLSCAASGSIFAPYTMGWYRQAPGKERELVAAISSSGTSTYYADSVKGRFTISRDNAKNTVYLQMNSLKPEDTAVYYCAADWYYHYGYWGQGTQVTVSS | high polyreactivity
30 | QGQLVESGGGLVQAGGSLRLSCAASGRTFWYYTIGWYRQAPGKERELVAAISSGGRTNYADSVKGRFTISRDNAKNPVYLQMNSLKPEDTAVYYCASSRYYKYVERDYWGQGTQVTVSS | high polyreactivity
31 | QVQLVESGGGLVQAGGILRLSCAASGRIFGPYTMGWYRQAPGKEREFVAAISRSGDSTYYADSVKGRFTISRDNAKNTVYLQMNSLKPEDTAVYYCAAKYGTRLSAYYYWGQGTQVTVSS | high polyreactivity
32 | QVQLVESGGGLVQAGGRLRLSCAASGIIFQYNAMGWYRQAPGKEREFVAAISYGGTSTYYADSVKGRFTISRDNAKNTVYLQMNSLKPEDTAVYYCAADYQGYTPSDGRYYWGQGTQVTVSS | low polyreactivity
